Reference: paper PMC2856910

Biological target: β-cat bound to cadherin (in vitro binding studies, unpublished data) (UniProt Q02248)
UniProt Q02248, sequence (Q02248 whole entry, chain 1 of 2): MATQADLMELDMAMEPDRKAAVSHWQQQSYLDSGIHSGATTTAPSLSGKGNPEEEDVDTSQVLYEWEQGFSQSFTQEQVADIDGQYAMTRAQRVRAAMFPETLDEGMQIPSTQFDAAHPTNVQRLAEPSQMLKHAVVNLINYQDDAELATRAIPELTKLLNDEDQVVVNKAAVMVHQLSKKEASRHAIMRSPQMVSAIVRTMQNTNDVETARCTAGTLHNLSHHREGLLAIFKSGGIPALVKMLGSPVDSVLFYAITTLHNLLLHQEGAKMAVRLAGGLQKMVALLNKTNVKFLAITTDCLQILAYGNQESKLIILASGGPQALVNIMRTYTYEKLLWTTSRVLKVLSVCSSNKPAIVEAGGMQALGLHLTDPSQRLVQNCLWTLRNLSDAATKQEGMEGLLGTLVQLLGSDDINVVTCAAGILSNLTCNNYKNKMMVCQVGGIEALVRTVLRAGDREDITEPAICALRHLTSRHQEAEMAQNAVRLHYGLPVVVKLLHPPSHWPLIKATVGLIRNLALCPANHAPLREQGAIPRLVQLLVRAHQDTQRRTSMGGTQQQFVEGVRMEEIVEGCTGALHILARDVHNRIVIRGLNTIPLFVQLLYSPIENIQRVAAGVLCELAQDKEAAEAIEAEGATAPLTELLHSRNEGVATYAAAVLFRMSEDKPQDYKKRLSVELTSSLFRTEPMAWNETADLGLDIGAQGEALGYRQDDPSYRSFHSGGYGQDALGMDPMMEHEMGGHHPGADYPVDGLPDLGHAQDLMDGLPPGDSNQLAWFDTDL
UniProt Q02248, sequence (P09803 24-884, chain 2 of 2, further chain): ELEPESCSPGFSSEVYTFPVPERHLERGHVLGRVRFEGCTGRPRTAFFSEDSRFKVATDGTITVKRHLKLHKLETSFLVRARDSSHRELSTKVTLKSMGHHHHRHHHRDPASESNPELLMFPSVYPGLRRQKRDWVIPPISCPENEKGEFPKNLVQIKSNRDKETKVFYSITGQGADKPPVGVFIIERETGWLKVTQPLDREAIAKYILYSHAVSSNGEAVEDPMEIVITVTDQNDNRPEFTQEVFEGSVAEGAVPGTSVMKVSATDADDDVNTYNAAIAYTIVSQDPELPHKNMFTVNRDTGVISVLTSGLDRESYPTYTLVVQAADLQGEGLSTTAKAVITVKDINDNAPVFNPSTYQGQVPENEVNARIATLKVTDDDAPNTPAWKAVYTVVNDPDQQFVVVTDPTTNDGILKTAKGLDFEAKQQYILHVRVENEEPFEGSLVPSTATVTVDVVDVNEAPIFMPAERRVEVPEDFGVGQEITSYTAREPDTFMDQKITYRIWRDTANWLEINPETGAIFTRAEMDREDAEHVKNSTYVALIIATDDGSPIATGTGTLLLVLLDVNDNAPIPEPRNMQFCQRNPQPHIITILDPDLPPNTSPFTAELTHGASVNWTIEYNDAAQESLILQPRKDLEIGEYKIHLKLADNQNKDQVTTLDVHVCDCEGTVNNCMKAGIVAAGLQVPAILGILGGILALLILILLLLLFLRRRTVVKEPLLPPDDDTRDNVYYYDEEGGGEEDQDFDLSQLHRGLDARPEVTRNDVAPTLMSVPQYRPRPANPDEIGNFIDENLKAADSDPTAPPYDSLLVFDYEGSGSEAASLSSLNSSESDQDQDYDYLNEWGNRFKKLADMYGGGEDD

fold enhancement of binding against β-cat alone: > 10 fold
Substance: α-catenin (in vitro binding studies, unpublished data) (from UniProt P26231 1-906) (natural protein)
